The values that follow come from patent publication US20260055441A1, “A PCR-ELISA ANALOGOUS ANTIBODY-FREE METHOD FOR DETECTING A TARGET NUCLEIC ACID IN A SAMPLE” (UNIVERSITÄT HEIDELBERG, priority 2022, published 2026).

Several values for one entry are separate records, joined by “and”; a condition that tells them apart may be missing. Equal entries are not always repeated. No end group written: not given here.

The target in assay [1] is T1, latent papain P13 (Carica papaya, UniProt P00784).
T1 construct: purchased Sigma Aldrich (Munich, Germany); host or cells: Papaya latex (natural source)
T1 sequence (P00784 134-345): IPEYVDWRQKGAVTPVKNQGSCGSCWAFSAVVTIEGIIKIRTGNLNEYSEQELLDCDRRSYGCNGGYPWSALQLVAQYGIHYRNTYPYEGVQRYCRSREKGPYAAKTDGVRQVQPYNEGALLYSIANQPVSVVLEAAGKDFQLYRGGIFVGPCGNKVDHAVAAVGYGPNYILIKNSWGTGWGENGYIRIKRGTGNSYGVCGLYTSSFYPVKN
Description: Latent papain reactivation assay with thiol activators at 10 μM, rates normalized to 10 μM cysteine (FIG. 18). The format is biochemical. The settings on record: activator 10 μM, latent papain 1 nM, Z-Phe-Arg-AMC 2 μM; for reaction rate compared to L-cysteine: pH 7; for normalized ratio rate/rate 10 μM cysteine of substrate hydrolysis after reactivation of latent papain: well buffer pH 7, no TCEP. How it is done:
All following described fluorometric assays (Examples 1-3) are based on the reaction of reversibly inactivated papain (latent papain) with an activator containing either sulfur or selenium (with the exception of TCEP). Different latent papain forms, buffer compositions and activators in various concentrations were compared. Papain was hereby transferred in buffer (standard well buffer consisted of 0.1 M phosphate pH 7, 4 mM EDTA, 0.01% Brij35 and if activators contained diselenides, 1 μM TCEP) mixed with activator and substrate inside 96 well plates (without prior washing of the plates). After reactivation, active papain hydrolyses the substrate Z-Phe-Arg-AMC (2 μM) and the resulting fluorescence was tracked every minute for 2 h. The slopes of the corresponding curves were calculated for the linear portion within the first 30 minutes and the resulting reaction rates were directly compared. Resulting reaction rates directly reflect reactivation efficiencies of each activator under each reaction condition. […] After addition of activator a fraction of latent papain is immediately reactivated in rather non-stoichiometric proportions. Complete reactivation can generally only be achieved with great excess of activator. The partial reactivation with smaller activator amounts appears almost instantaneously because the resulting reaction curve show linear progression from the start except for very low activator concentrations. After reactivation, all different latent papain forms result in the same active enzyme. If different latent papain forms show different reaction rates in identical activation assays, the efficiency of reactivation with the applied activator can be deduced. The same applies for reactivation of one latent papain form with different activators or reaction conditions.
Several thiol compounds and cysteine containing peptide activators (see Example 4.1) were compared for their potential to reactivate latent papain. To this end, the thiol compounds and cysteine containing peptide activators were utilized in reactivation assays (see Example 5, 5.2.2.2, fluorometric method 2) of papain P13 (see Example 1, 1.2) with an activator concentration of 10 μM. For thiols not completely soluble in phosphate buffer pH 7 at high concentrations, the 1 mM stock solution was prepared in DMSO, resulting in 1% DMSO in the reaction mixture. In order to normalize the observed reaction rates between assays, a 10 μM cysteine sample was additionally measured in every assay and reaction rates of the examined thiols were divided through the reaction rates produced by the 10 μM cysteine standard. Additionally, a measurement with 1 mM cysteine was performed in order to achieve maximal papain activation and therefore the maximal reaction rate within the confines of the assay. The resulting normalized rates are compared in FIG. 18.
Different assays of reactivating latent papain in solution were conducted in the course of this work. Various buffer compositions, supplements, 96 well plates, substrates, activators, concentrations as well as different latent papain forms were compared. In order to get an overview of all experiments, a standard method is described in the following and variations of this method are subsequently defined. First, the well buffer was prepared (0.1 M phosphate buffer pH 7, 4 mM EDTA, 0.01% Brij35). A 1 mM TCEP solution was prepared with 3 mM NaOH in 0.1 M Tris-HCl buffer pH 8. Papain substrate (Z-Phe-Arg-AMC or Suc-Leu-Leu-Val-Tyr-AMC) was prepared as a 200 μM solution in water and transferred equally to a PCR strip. Three serial dilutions of the activating agent with well buffer were used in the different experiments and the corresponding pipetting schemes are shown in Table 9. Papain was diluted to 0.1 μM with well buffer and transferred equally to a PCR strip. After preparation of the abovementioned solutions, TCEP (1 mM solution) was added to well buffer to yield a final TCEP concentration of 1.1 μM. […]

The target of assay [2] is T1, latent papain P13. Description: Screening of peptide-based papain activators, rates normalized to cysteine ethyl ester (FIG. 19, FIG. 20). The assay is classed as biochemical. The settings on record: for normalized ratio rate/rate cysteine ethyl ester (CysEE): activator 50 nM, latent papain P13 1 nM, substrate 2 μM, pH 7. The protocol: L-Cysteine ethyl ester was utilized in identical peptide concentrations as a standard in order to calculate normalized reaction rates for each synthesized peptide.
[…] The assays were conducted in well buffer with 1 nM latent papain P13. In order to give a clear overview, only the normalized rates for activator concentrations of 50 nM are depicted and compared.
Additionally, 1 μM TCEP was added to each well of the cysteine concentration series in order to examine the influence of TCEP on reaction rates of thiols.
Different assays of reactivating latent papain in solution were conducted in the course of this work. Various buffer compositions, supplements, 96 well plates, substrates, activators, concentrations as well as different latent papain forms were compared. In order to get an overview of all experiments, a standard method is described in the following and variations of this method are subsequently defined. First, the well buffer was prepared (0.1 M phosphate buffer pH 7, 4 mM EDTA, 0.01% Brij35). A 1 mM TCEP solution was prepared with 3 mM NaOH in 0.1 M Tris-HCl buffer pH 8. Papain substrate (Z-Phe-Arg-AMC or Suc-Leu-Leu-Val-Tyr-AMC) was prepared as a 200 μM solution in water and transferred equally to a PCR strip. Three serial dilutions of the activating agent with well buffer were used in the different experiments and the corresponding pipetting schemes are shown in Table 9. Papain was diluted to 0.1 μM with well buffer and transferred equally to a PCR strip. […] 342.4 μL of TCEP containing well buffer was transferred to each well, followed by 3.8 μL papain solution. After mixing, 30 μL of the prepared activator concentrations (see Table 9) were added and mixed. In the last step, 3.8 μL of the substrate solution was added and mixed, to yield a final well composition of 0.1 M phosphate buffer pH 7, 1 nM papain, 2 μM substrate, activator (see Table 9), 4 mM EDTA, 0.01% Brij35 and 1 μM TCEP. For experiments with only one activator concentration of 10 μM, the transferred well buffer for each well was 368.6 μL, followed by 3.8 μL of papain, substrate and activator (1 mM in well buffer) respectively.

The target of assay [3] is T2, latent papain, reversibly inactivated with S-methyl methanethiosulfonate (-S-S-CH3) (Carica papaya, UniProt P00784 134-345, catalytic Cys25 blocked as mixed disulfide -S-S-CH3).
T2 sequence: T1 sequence (P00784 134-345)
Description: cell-based or functional assay.

The mark [4] stands for this setting: FIG. 20, concentration series 50 nM-10 μM.

On to `OCCS` [2-ME, 2-Mercaptoethan-1-ol], for which, at latent papain P13 [1], the “reaction rate compared to L-cysteine” value is 70%.

Take `CC(=O)Nc1ccc(S)cc1` [4-acetamidothiophenol, 4-Acetamidothiophenol]: the “activator efficiency, in words” value at latent papain P13 [2] (setting [4]) was “more potent activators compared to the tripeptide”. In addition, the “rate relative to the tripeptide H2N-CLR-CONH2” value on latent papain P13 [2] (concentration series 50 nM-10 μM (FIG. 20), selenocysteine prepared with TCEP) is recorded as “five times as efficient”.

In the case of `SCc1ccc(Cl)cc1` [4-chlorobenzyl mercaptan, 4-Chlorobenzyl mercaptan], the “normalized ratio rate/rate 10 μM cysteine of substrate hydrolysis after reactivation of latent papain” value on latent papain P13 [1] turned out to be 0.83.

Take `Nc1nnc(S)s1` [5-Amino-1,3,4-thiadiazole-2-thiol]: the “normalized ratio rate/rate 10 μM cysteine of substrate hydrolysis after reactivation of latent papain” value at latent papain P13 [1] is reported as “almost no papain activation potential at all”.

As to `N[C@H](CS)C(=O)O` [D-cysteine], the “reaction rate compared to L-cysteine” value at latent papain P13 [1] is given as 70%.

Regarding `N[C@@H](CCS)C(=O)O` [L-homocysteine, L-Homocysteine], the “normalized ratio rate/rate 10 μM cysteine of substrate hydrolysis after reactivation of latent papain” value at latent papain P13 [1] is reported as “lower reaction rates”.

Take `CC(C)(S)[C@H](N)C(=O)O` [L-penicillamine, L-Penicillamine]: the “normalized ratio rate/rate 10 μM cysteine of substrate hydrolysis after reactivation of latent papain” value at latent papain P13 [1] is reported as “lower reaction rates”.

Regarding `O=C(O)CCP(CCC(=O)O)CCC(=O)O` [TCEP, Tris(2-carboxyethyl)phosphine], the “activator efficiency, in words” value at latent papain P13 [2] (setting [4]) is “very little efficiency”.

Regarding `Sc1ccccc1` [thiophenol, Thiophenol], the “normalized ratio rate/rate 10 μM cysteine of substrate hydrolysis after reactivation of latent papain” value on latent papain P13 [1] worked out at 4.86.

Turning to “H2N-C-C-R-G-CONH2 (H-CCRG-NH2; cysteine pairing not given here) [H2N—CCRG-CONH2]”, the “normalized ratio rate/rate cysteine ethyl ester (CysEE)” value with latent papain P13 [2] is given as “most potent activators”.

For the molecule “H2N-C-F-R-CONH2 (H-Cys-Phe-Arg-NH2) [H2N—CFR—CONH2]”, the “normalized ratio rate/rate 10 μM cysteine of substrate hydrolysis after reactivation of latent papain” value with latent papain P13 [1] is recorded as “more than twice as high”.

“H2N-C-L-C-G-CONH2 (H-CLCG-NH2; cysteine pairing not given here) [H2N—CLCG-CONH2]”: in the assay with latent papain P13 [2], the “normalized ratio rate/rate cysteine ethyl ester (CysEE)” value is recorded as “most potent activators”.

In the case of “H2N-C-L-R-CONH2 (H-Cys-Leu-Arg-NH2) [H2N—CLR—CONH2]”, the “normalized ratio rate/rate 10 μM cysteine of substrate hydrolysis after reactivation of latent papain” value with latent papain P13 [1] is listed as “more than twice as high”. Further, in the assay with latent papain P13 [2] (setting [4]), the “potency relative to (L-)cysteine” value was “almost four times as efficient”. Besides, the “normalized ratio rate/rate cysteine ethyl ester (CysEE)” value in the assay with latent papain P13 [2] was 1.8 and 1.81.

Take “H2N-C-L-R-G-CONH2 (H-CLRG-NH2) [H2N—CLRG-CONH2]”: the “normalized ratio rate/rate cysteine ethyl ester (CysEE)” value with latent papain P13 [2] is 1.29.

For the molecule “H2N-C-L-R-G-COOH (H-CLRG-OH) [H2N—CLRG-COOH]”, in the assay with latent papain P13 [2], the “normalized ratio rate/rate cysteine ethyl ester (CysEE)” value was 0.51.

B1: H2N-G-K-C-L-R-G-COOH (peptide)
peptide: H-GKCLRG-OH
Take B1: the “normalized ratio rate/rate cysteine ethyl ester after reactivation of latent papain P13 (1 nM), activator 50 nM” value in assay [3] is < 1 rate/rate cysteine ethyl ester.

B2: H2N-E-G-C-G-R-G-COOH (peptide)
peptide: H-EGCGRG-OH
As for B2, the “normalized ratio rate/rate cysteine ethyl ester after reactivation of latent papain P13 (1 nM), activator 50 nM” value in assay [3] was < 1 rate/rate cysteine ethyl ester.

B3: H2N-F-V-C-E-K-G-COOH (peptide)
peptide: H-FVCEKG-OH
As to B3, the “normalized ratio rate/rate cysteine ethyl ester after reactivation of latent papain P13 (1 nM), activator 50 nM” value in assay [3] was < 1 rate/rate cysteine ethyl ester.

B4: H2N-G-L-C-L-R-G-COOH (peptide)
peptide: H-GLCLRG-OH
modifications: not fully specified
As for B4, the “normalized ratio rate/rate cysteine ethyl ester after reactivation of latent papain P13 (1 nM), activator 50 nM” value in assay [3] is < 1 rate/rate cysteine ethyl ester.

B5: H2N-CLRCG-COOH (peptide)
peptide: H-CLRCG-OH
modifications: cysteine pairing not given here
As for B5, the “normalized ratio rate/rate cysteine ethyl ester after reactivation of latent papain P13 (1 nM), activator 50 nM” value in assay [3] was 0.99 rate/rate cysteine ethyl ester.

B6: H2N-CLRG-CONH2 (peptide)
peptide: H-CLRG-NH2
On to B6, for which the “normalized ratio rate/rate cysteine ethyl ester after reactivation of latent papain P13 (1 nM), activator 50 nM” value in assay [3] is 1.29 rate/rate cysteine ethyl ester.

B7: H2N-G-G-C-G-G-G-COOH (peptide)
peptide: H-GGCGGG-OH
Take B7: in assay [3], the “normalized ratio rate/rate cysteine ethyl ester after reactivation of latent papain P13 (1 nM), activator 50 nM” value is < 1 rate/rate cysteine ethyl ester.

B8: H2N-S-E-C-L-R-G-COOH (peptide)
peptide: H-SECLRG-OH
Turning to B8, the “normalized ratio rate/rate cysteine ethyl ester after reactivation of latent papain P13 (1 nM), activator 50 nM” value in assay [3] is < 1 rate/rate cysteine ethyl ester.

B9: H2N-CLRG-COOH (peptide)
peptide: H-CLRG-OH
For the molecule B9, the “normalized ratio rate/rate cysteine ethyl ester after reactivation of latent papain P13 (1 nM), activator 50 nM” value in assay [3] is 0.51 rate/rate cysteine ethyl ester.

B10: H2N-CLR-CONH2 (peptide)
peptide: H-Cys-Leu-Arg-NH2
Consider B10, for which, in assay [3], the “normalized ratio rate/rate cysteine ethyl ester after reactivation of latent papain P13 (1 nM), activator 50 nM” value is 1.81 rate/rate cysteine ethyl ester and the “reaction rate after reactivation of latent papain P13 (1 nM), concentration series 50 nM-10 uM, against free cysteine” value was ~4 fold of free cysteine.

B11: dU-triazole-PEG3-ULR dimer (21) (peptide)
peptide: X-Leu-Arg-NH2
modifications: not fully specified (residue 1, N-terminus); printed as dU-triazole-PEG3-ULR; also: diselenide dimer
In the case of B11, in assay [3], the “normalized ratio rate/rate blank, P20 against P28” value was 2 fold of the normalized rate of P28; the “normalized ratio rate/rate blank, activator at half equimolar concentration of papain (printed 500 µM; papain 1 nM)” value was 33 fold of the background activity; the “normalized ratio rate/rate blank, activator at the lowest concentration (printed 50 µM; series starts at 50 pM)” value is 4 fold of the background activity; the “reaction rate after reactivation of latent papain (1 nM), activator 10 nM, against DTBA (9)” value was 23 fold of the rate with DTBA (9). In assay [3], the “reaction rate after reactivation of latent papain (1 nM), activator 10 nM, against DTT” value was 159 fold of the rate with DTT; the “reaction rate after reactivation of latent papain (1 nM), activator 50 nM, against DTBA (9)” value is 9 fold of the rate with DTBA (9); the “reaction rate after reactivation of latent papain (1 nM), activator 50 nM, against DTT” value is 128 fold of the rate with DTT.
